# Reference: IntAct's records for PubMed 23782464
# B1: Bcl-2 homologous antagonist/killer (Homo sapiens), Q16611 (parent)
# chain: MASGQGPGPPRQECGEPALPSASEEQVAQDTEEVFRSYVFYRHQQEQEAEGVAAPADPEMVTLPLQPSSTMGQVGRQLAIIGDDINRRYDSEFQTMLQHLQPTAENAYEYFTKIATSLFESGINWGRVVALLGFGYRLALHVYQHGLTGFLGQVTRFVVDFMLHHCIARWIAQRGGWVAALNLGNGPILNVLVVLGVVLLGQFVVRRFFKS
# partner: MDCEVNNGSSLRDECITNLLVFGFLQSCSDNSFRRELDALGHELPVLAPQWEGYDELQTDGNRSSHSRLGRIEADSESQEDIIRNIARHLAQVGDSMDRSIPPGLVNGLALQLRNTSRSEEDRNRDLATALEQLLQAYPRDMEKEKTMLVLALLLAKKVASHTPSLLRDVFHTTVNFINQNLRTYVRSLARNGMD
# Variants of: B1
# Settings: with bid_human BID
row,effect of a mutation on the interaction,Variant
1,increasing interaction,Y110E
